Experimental data: patent US20050226885A1
Values joined by “and” are separate entries in the source; they are usually repeats but may differ in a detail not shown here. Equal entries are not always repeated.

Biological target: C215 antigen (human GA-733 antigen recognized by the C215 mAb) (human) (UniProt P16422)
Experiment: FACS on Colo205 cells

Chain of UniProt P16422 (P16422 24-314): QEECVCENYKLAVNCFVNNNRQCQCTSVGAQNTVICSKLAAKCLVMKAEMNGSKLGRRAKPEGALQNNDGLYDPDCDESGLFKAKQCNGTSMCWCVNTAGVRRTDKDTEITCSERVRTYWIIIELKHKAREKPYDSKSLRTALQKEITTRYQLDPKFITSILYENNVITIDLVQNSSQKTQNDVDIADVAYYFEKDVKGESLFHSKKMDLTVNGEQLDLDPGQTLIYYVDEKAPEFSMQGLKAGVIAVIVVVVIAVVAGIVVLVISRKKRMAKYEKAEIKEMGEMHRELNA

Question: “CD80-C215Fab (from UniProt P33681 35-242)” was tested. Which fold lower binding than that of C215Fab-SEA did it give?
Answer: 50 fold lower and 100 fold lower

Question: And the fold reduction of binding compared to C215Fab-SEA?
Answer: 100 fold reduced
